Test results taken from US20240352134A1.

Assays:
human CCR8 (human) [1] = molecular target: human CCR8 (human) (UniProt P51685); assay: binding affinity EC50, comparison of Table 12 (FACS on CCR8-expressing cells)
human CCR8 (human) [2] = molecular target: human CCR8 (human) (UniProt P51685); assay: cell-based or functional assay

Sequence of human CCR8 (human) (P51685 whole entry): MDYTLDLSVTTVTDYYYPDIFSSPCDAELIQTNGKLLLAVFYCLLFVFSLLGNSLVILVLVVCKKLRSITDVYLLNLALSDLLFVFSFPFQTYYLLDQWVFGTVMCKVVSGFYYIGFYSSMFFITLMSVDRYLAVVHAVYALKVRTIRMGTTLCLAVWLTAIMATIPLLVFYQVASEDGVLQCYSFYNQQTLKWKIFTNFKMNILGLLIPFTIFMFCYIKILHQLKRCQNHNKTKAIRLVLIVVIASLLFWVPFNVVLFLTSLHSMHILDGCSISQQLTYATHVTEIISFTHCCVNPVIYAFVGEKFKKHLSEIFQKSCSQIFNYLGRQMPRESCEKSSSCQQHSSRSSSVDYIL

EC50 (human CCR8 (human) [1])	Signal block Ca2+ (human CCR8 (human) [2])	Substance
0.243 nM	–	S-531011 (antibody)
0.29 nM	4.34 nM	GS-1811 (antibody)
